For this test, the target named is Fzd7/Sdc4 co-receptor complex (mouse) (UniProt Q61090). Description: cell-based or functional assay.
Fzd7/Sdc4 co-receptor complex (mouse), sequence (O35988 24-198, chain 2 of 2, other chains not shown): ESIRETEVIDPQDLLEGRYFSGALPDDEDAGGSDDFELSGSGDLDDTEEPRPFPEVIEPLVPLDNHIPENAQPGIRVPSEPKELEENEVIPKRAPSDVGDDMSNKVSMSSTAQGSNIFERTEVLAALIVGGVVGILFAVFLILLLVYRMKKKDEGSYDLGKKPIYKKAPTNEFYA

Turning to “human plasma fibronectin (BD biosciences) (from UniProt P02751 32-2296) (ligand)”, the increase in numbers of Pax7+/YFP+ cells, FN&Wnt7a condition, 72 h was determined as 38%; the increase in numbers of satellite stem cells, FN&Wnt7a relative to COL&Wnt7a, 72 h is 156%; the increase in the proportion of symmetric Pax7+/YFP- cell divisions, FN&Wnt7a, 42 h amounted to 163%.

The substance “recombinant Wnt7a (R&D Systems) (ligand)” displayed an increase in the proportion of symmetric cell divisions, COL&Wnt7a against COL alone, 42 h of 108%.

Source of the values: patent US20150111822A1.
